# How the values were obtained:
# [1] = target: membrane-bound TNFalpha on stably transfected CHO cells (B-220 cells); experiment: FACS, anti-CD19 beads with TNFalpha-transfected CHO cells (FIG. 4, middle panel)
# [2] = target: membrane-bound TNFalpha on stably transfected CHO cells (B-220 cells); experiment: FACS, beads with CHO-TNFα (B220) cells, Sample 2
# [3] = target: membrane-bound TNFalpha on stably transfected CHO cells (B-220 cells); experiment: FACS, mixed beads with CHO-TNFα (B220) cells, Sample 4
substance,measurement,setting,value
"APC labeled unrelated antibody (anti-CD19), coated on beads",# Events (cells bound to anti-CD19-APC beads),[1],6 events
same,% Parent,[1],0.1%
same,% Total,[1],0.1%
same,% bound beads,[2],0.9%
same,% bound beads,[3],0.4%
